In experiment [1] the target is Torpedo californica acetylcholinesterase (Torpedo californica) (UniProt P04058). In words: titration of enzyme activity.
For experiment [2] the target is unchanged. The experiment can be described thus: kinetics of approach to equilibrium by enzyme activity.
Experiment [3] concerns the target T1, Torpedo californica acetylcholinesterase (Torpedo californica, UniProt P04058 22-564). The experiment is described as above.
The target in experiment [4] is T1, Torpedo californica acetylcholinesterase. In words: titration of enzyme activity.

Regarding “fasciculin mutant H29R (natural protein)”, the Kd (commonly a measure of binding affinity in units of concentration) in experiment [1] worked out at 0.052 nM. Also, in experiment [2], the Kd amounted to 0.03 nM; the koff (usually the rate constant with which the complex falls apart) was 0.0127 s⁻¹; the kon – broadly, the rate constant with which the complex forms – worked out at 3.9e+08 M⁻¹ s⁻¹.

In the case of “fasciculin mutant K32R (natural protein)”, the Kd was found to be 2.3 nM in experiment [1] and 2.6 nM in experiment [2]. Also, in experiment [2], the koff turned out to be 0.09 s⁻¹.

Turning to fasciculin mutant T8V (natural protein), the equilibrium dissociation constant (Kd) in experiment [1] is 0.125 nM.

“fasciculin mutant R11K (natural protein)” showed a Kd in experiment [1] of 0.53 nM. In experiment [2], this molecule had a Kd of 0.63 nM, a koff of 0.0293 s⁻¹ and a kon of 4.7e+07 M⁻¹ s⁻¹.

In turn, fasciculin mutant T9N (natural protein) gave a Kd in experiment [1] of 2.8 nM.

The molecule “fasciculin double mutant T8V/T9N (natural protein)” registered a Kd in experiment [1] of 0.64 nM. Besides, in experiment [2], the Kd is 0.6 nM, the koff was found to be 0.0505 s⁻¹ and the kon is 8.5e+07 M⁻¹ s⁻¹.

B1: recombinant wild-type fasciculin-2 (natural protein)
chain: TMCYSHTTTSRAILTNCGENSCYRKSRRHPPKMVLGRGCGCPPGDDNLEVKCCTSPDKCNY
Take B1: in experiment [3], the Kd was determined as 0.37 nM, the koff worked out at 0.025 s⁻¹ and the kon was 6.8e+07 M⁻¹ s⁻¹. In experiment [4], this molecule yielded a Kd of 0.31 nM.
